Experimental data as given in US20140274782A1, “AFFINITY REAGENTS AND METHODS FOR DETECTION, PURIFICATION, AND PROTEOMIC ANALYSIS OF METHYLATED PROTEINS” (The Board of Trustees of the Leland Stanford Junior …, priority 2013, published 2014).

Assays:
3×MBT domain of L3MBTL1 = assay: Triple SILAC pull-down, 3xMBT/3xMBTD355N ratio (cytoplasmic, nuclear and chromatin fractions of 293T cells); format: binding, human; conditions: for Protein Ratios 3xMBT/D355N: pull-down by 3xMBT vs 3xMBTD355N; for 3xMBT/D355N UNC Heavy: experiment with UNC0638 in heavy SILAC media; for 3xMBT/D355N UNC Light: experiment with UNC0638 in light SILAC media;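 for all read-outs here: proteins quantified with MaxQuant, requiring at least two unique peptides and quantification in both label directions, normalized to the mean of proteins from a digested loading control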
G9a and GLP = target: T1, G9a and GLP (Homo sapiens, UniProt Q96KQ7+Q9H9B1); assay: Triple SILAC pull-down after UNC0638 treatment of 293T cells, DMSO/UNC0638 ratio of protein captured by 3×MBT; format: cell-based; conditions: for Protein Ratios DMSO/UNC0638: SILAC ratio of protein captured by 3xMBT, 293T cells treated 24 hours with UNC0638 at 2.5 μM or DMSO; for Relative to UNC0638 UNC Heavy: UNC0638 in heavy SILAC media; for Relative to UNC0638 UNC Light: UNC0638 in light SILAC media; for Relative to UNC0638 Average: average of UNC Light and UNC Heavy experiments; for Candidate G9a/GLP target: reduced association with 3xMBT after UNC0638 treatment;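 for all read-outs here: mass spectrometry (Q-Exactive) SILAC quantitation, DMSO/UNC0638 ratio computed after subtracting 3×MBTD355N mutant pull-down background, only proteins with at least twofold 3×MBT over mutant signal considered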
T1 construct: endogenous in cells; host or cells: HEK 293T
T1 sequence (Q96KQ7 2-1210 limits assumed): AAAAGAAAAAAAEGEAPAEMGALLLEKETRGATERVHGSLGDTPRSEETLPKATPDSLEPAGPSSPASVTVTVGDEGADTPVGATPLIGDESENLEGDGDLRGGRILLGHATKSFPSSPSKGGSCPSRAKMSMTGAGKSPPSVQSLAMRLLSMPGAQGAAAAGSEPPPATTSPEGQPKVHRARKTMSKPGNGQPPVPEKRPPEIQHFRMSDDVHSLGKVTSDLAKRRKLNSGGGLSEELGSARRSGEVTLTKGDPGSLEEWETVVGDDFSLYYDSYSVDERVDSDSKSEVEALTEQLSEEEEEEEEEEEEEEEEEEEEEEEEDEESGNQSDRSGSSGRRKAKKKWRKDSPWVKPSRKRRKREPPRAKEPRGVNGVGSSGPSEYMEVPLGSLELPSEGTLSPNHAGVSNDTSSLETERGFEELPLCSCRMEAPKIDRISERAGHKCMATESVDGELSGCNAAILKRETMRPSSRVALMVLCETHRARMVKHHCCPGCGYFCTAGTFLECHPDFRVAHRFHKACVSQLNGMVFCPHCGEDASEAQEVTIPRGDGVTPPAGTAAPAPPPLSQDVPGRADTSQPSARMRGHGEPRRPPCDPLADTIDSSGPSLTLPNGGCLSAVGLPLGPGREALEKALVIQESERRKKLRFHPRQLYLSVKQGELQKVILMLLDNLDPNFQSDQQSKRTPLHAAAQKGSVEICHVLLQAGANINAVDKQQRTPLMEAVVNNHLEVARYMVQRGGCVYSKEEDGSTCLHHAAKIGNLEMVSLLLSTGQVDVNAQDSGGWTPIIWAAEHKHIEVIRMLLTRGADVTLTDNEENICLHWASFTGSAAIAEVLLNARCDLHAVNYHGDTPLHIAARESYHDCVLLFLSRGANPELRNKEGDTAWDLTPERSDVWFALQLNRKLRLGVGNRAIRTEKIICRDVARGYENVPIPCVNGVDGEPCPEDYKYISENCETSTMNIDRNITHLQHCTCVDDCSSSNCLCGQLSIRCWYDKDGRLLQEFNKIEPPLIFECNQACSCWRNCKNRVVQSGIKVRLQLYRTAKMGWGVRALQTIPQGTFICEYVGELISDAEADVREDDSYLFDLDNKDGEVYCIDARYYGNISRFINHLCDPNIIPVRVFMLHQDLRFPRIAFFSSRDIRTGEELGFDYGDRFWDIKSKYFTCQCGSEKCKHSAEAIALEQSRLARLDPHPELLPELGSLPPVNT
T1 sequence (Q9H9B1 2-1298 limits assumed): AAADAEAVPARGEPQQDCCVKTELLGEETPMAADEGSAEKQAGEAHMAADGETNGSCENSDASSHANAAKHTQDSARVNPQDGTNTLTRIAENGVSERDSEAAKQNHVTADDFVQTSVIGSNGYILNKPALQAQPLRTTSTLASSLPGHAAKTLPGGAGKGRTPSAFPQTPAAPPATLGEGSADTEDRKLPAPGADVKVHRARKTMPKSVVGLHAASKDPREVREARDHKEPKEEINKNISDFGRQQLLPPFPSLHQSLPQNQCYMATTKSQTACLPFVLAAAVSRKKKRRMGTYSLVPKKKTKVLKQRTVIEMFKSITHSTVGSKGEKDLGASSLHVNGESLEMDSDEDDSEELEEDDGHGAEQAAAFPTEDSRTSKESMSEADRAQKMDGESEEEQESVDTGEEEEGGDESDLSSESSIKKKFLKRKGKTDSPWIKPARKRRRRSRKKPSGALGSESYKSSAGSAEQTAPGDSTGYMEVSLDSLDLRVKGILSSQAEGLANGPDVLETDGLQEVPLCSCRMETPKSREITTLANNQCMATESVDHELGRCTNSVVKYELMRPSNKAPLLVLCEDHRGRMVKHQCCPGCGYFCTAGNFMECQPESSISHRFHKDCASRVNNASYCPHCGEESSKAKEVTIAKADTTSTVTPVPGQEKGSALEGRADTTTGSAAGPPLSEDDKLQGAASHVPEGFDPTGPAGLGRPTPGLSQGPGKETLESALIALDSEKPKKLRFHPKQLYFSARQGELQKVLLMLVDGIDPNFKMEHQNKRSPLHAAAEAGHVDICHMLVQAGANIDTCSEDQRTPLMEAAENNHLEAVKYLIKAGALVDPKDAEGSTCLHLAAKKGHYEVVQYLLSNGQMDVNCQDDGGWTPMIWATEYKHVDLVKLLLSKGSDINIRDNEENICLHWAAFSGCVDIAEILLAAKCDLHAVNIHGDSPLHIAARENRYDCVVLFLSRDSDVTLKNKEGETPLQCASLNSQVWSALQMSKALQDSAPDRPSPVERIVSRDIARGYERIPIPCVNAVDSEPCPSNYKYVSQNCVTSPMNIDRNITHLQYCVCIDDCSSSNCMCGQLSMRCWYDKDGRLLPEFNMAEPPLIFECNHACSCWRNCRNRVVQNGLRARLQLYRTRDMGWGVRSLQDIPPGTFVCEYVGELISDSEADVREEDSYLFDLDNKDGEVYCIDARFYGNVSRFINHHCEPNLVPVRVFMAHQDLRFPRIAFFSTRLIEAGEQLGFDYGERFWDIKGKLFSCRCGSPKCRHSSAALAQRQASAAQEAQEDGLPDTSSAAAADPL

[1] = SILAC ratio 3xMBT vs 3xMBTD355N pull-down, 293T cells, all values in log base 2
[2] = SILAC ratio DMSO relative to UNC0638, pull-down with 3xMBT, all values in log base 2
[3] = SILAC ratio, pull-down 3xMBT vs 3xMBTD355N
[4] = SILAC ratio DMSO/UNC0638 of protein pulled down with 3xMBT

Row | Relative to UNC0638 UNC Heavy (G9a and GLP; [4]) [log base 2] | Relative to UNC0638 UNC Light (G9a and GLP; [4]) [log base 2] | Relative to UNC0638 Average (G9a and GLP) [log base 2] | Substance | 3xMBT/D355N UNC Heavy (3×MBT domain of L3MBTL1; [3]) [log base 2] | 3xMBT/D355N UNC Light (3×MBT domain of L3MBTL1; [3]) [log base 2] | further results
1 | 0.19 | 0.07 | 0.13 | CFL1 | 2.43 | 3.06 | 
2 | 0.34 | 0.14 | 0.24 | CHD4 | 2.24 | 3.63 | 
3 | 0.24 | 0.65 | 0.44 | CLTC | 2.19 | 2.98 | Candidate G9a/GLP target (G9a and GLP): ✓
4 | 0.07 | 0.26 | 0.17 | CORO1C | 2.83 | 3.30 | 
5 | 0.30 | 0.73 | 0.52 | CSDA | 3.85 | 3.10 | Candidate G9a/GLP target (G9a and GLP): ✓
6 | 0.14 | 0.22 | 0.18 | DDX6 | 3.18 | 3.05 | 
7 | 0.00 | 0.37 | 0.18 | DIDO1 | 1.35 | 3.36 | 
8 | 0.46 | −0.19 | 0.13 | DNMT1 | 1.70 | 2.02 | 

The remaining lines, values behind:

Row | Substance | Relative to UNC0638 UNC Heavy (G9a and GLP; [4]) [log base 2] | Relative to UNC0638 UNC Light (G9a and GLP; [4]) [log base 2] | Relative to UNC0638 Average (G9a and GLP) [log base 2] | 3xMBT/D355N UNC Heavy (3×MBT domain of L3MBTL1; [3]) [log base 2] | 3xMBT/D355N UNC Light (3×MBT domain of L3MBTL1; [3]) [log base 2] | further results
9 | 60S ribosomal protein L5 |  |  |  |  |  | Protein Ratios 3xMBT/D355N (3×MBT domain of L3MBTL1; SILAC ratio, 293T cells): 2.3; Protein Ratios DMSO/UNC0638 (G9a and GLP): 1.4
10 | ABCF1 |  |  |  |  |  | 3xMBT/D355N UNC Heavy (3×MBT domain of L3MBTL1; [1]): 2.36 log base 2; 3xMBT/D355N UNC Light (3×MBT domain of L3MBTL1; [1]): 2.94 log base 2; Relative to UNC0638 UNC Heavy (G9a and GLP; [2]): 0.22 log base 2; Relative to UNC0638 UNC Light (G9a and GLP; [2]): −0.04 log base 2; Relative to UNC0638 Average (G9a and GLP; all values in log base 2): 0.09 log base 2
11 | ANXA2 |  |  |  |  |  | 3xMBT/D355N UNC Heavy (3×MBT domain of L3MBTL1; [1]): 2.86 log base 2; 3xMBT/D355N UNC Light (3×MBT domain of L3MBTL1; [1]): 2.78 log base 2; Relative to UNC0638 UNC Heavy (G9a and GLP; [2]): 0.38 log base 2; Relative to UNC0638 UNC Light (G9a and GLP; [2]): −0.31 log base 2; Relative to UNC0638 Average (G9a and GLP; all values in log base 2): 0.04 log base 2
12 | ATP-dependent DNA helicase Q1 |  |  |  |  |  | Protein Ratios 3xMBT/D355N (3×MBT domain of L3MBTL1; SILAC ratio, 293T cells): 18.8; Protein Ratios DMSO/UNC0638 (G9a and GLP): 1.4
13 | BUB3 | 0.15 | 0.14 | 0.15 | 2.75 | 3.26 | 
14 | CAMK2D | 0.26 | 0.27 | 0.27 | 1.96 | 2.82 | 
15 | CD3EAP |  |  |  |  |  | 3xMBT/D355N UNC Heavy (3×MBT domain of L3MBTL1; [1]): 2.30 log base 2; 3xMBT/D355N UNC Light (3×MBT domain of L3MBTL1; [1]): 1.86 log base 2; Relative to UNC0638 UNC Heavy (G9a and GLP; [2]): −0.02 log base 2; Relative to UNC0638 UNC Light (G9a and GLP; [2]): 0.01 log base 2; Relative to UNC0638 Average (G9a and GLP; all values in log base 2): 0.00 log base 2
16 | CKAP5 | 0.24 | 0.06 | 0.15 | 2.10 | 1.30 | 
17 | CSNK2B |  |  |  |  |  | 3xMBT/D355N UNC Heavy (3×MBT domain of L3MBTL1; [1]): 2.83 log base 2; 3xMBT/D355N UNC Light (3×MBT domain of L3MBTL1; [1]): 2.65 log base 2; Relative to UNC0638 UNC Heavy (G9a and GLP; [2]): 0.21 log base 2; Relative to UNC0638 UNC Light (G9a and GLP; [2]): −0.01 log base 2; Relative to UNC0638 Average (G9a and GLP; all values in log base 2): 0.10 log base 2
18 | CTBP2 | 0.50 | 0.15 | 0.32 | 1.97 | 1.74 | 
19 | Clathrin heavy chain 1 |  |  |  |  |  | Protein Ratios 3xMBT/D355N (3×MBT domain of L3MBTL1; SILAC ratio, 293T cells): 6.0; Protein Ratios DMSO/UNC0638 (G9a and GLP): 1.4
20 | DDX21 |  | 0.14 | 0.14 | 0.55 | 1.00 | 
21 | DDX39A | 0.36 | 0.01 | 0.18 | 2.00 | 1.53 | 
22 | DHX9 | 0.08 | 0.28 | 0.18 | 3.27 | 3.53 | 
23 | DNA-binding protein A |  |  |  |  |  | Protein Ratios 3xMBT/D355N (3×MBT domain of L3MBTL1; SILAC ratio, 293T cells): 11.1; Protein Ratios DMSO/UNC0638 (G9a and GLP): 1.4
24 | DNA-dependent protein kinase catalytic subunit |  |  |  |  |  | Protein Ratios 3xMBT/D355N (3×MBT domain of L3MBTL1; SILAC ratio, 293T cells): 4.5; Protein Ratios DMSO/UNC0638 (G9a and GLP): 1.5
25 | DNM2 |  | 0.54 | 0.54 | 0.05 | 0.57 | 
